Test results: US20260001928A1 (CORTERIA PHARMACEUTICALS, priority 2022, published 2026)
*1 amine or outer side, *2 acyl side, *3 side chain or, on linkers, in order; H or OH if unused. Where no end group is shown, it is not given here. Side-chain parts run from the residue outwards. [ ]: non-standard residue; d: D form. The star is where a group is joined. C18 diacid = O=C(O)CCCCCCCCCCCCCCCCC(=O)*; C16 diacid = O=C(O)CCCCCCCCCCCCCCC(=O)*; γGlu = O=C(O)[C@H](CCC(=O)[*:2])N[*:1]; C12 diacid = O=C(O)CCCCCCCCCCC(=O)*; NMeI = CC[C@H](C)[C@H](NC)C(=O)O; Api = NC1(C(=O)O)CCNCC1; Pentanoyl = CCCCC(=O)*; Aib = CC(C)(N)C(=O)O; Propionyl = CCC(=O)*

T1: CRF1R receptor (UniProt P34998 24-415, limits assumed)
T1 sequence (looked up): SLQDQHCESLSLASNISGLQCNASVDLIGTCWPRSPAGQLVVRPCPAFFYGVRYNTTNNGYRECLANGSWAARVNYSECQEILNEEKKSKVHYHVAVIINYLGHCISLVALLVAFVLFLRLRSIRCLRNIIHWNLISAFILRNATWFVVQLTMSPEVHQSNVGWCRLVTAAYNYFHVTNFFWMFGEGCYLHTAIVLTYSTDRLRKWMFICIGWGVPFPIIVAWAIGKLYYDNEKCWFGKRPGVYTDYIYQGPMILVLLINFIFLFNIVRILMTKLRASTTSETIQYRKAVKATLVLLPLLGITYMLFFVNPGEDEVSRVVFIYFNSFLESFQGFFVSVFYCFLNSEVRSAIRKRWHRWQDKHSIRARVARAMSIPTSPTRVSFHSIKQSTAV

B1: SEQ ID NO 6 (peptide)
peptide: Propionyl-VLSLD[dV]PIKLK([γGlu-C16 diacid])QILLKQERQKKQREQAEKNKQILEQV-NH2
SMILES: CCC(=O)N[C@H](C(=O)N[C@@H](CC(C)C)C(=O)N[C@@H](CO)C(=O)N[C@@H](CC(C)C)C(=O)N[C@@H](CC(=O)O)C(=O)N[C@@H](C(=O)N1CCC[C@H]1C(=O)N[C@H](C(=O)N[C@@H](CCCCN)C(=O)N[C@@H](CC(C)C)C(=O)N[C@@H](CCCCNC(=O)CC[C@H](NC(=O)CCCCCCCCCCCCCCC(=O)O)C(=O)O)C(=O)N[C@@H](CCC(N)=O)C(=O)N[C@H](C(=O)N[C@@H](CC(C)C)C(=O)N[C@@H](CC(C)C)C(=O)N[C@@H](CCCCN)C(=O)N[C@@H](CCC(N)=O)C(=O)N[C@@H](CCC(=O)O)C(=O)N[C@@H](CCCNC(=N)N)C(=O)N[C@@H](CCC(N)=O)C(=O)N[C@@H](CCCCN)C(=O)N[C@@H](CCCCN)C(=O)N[C@@H](CCC(N)=O)C(=O)N[C@@H](CCCNC(=N)N)C(=O)N[C@@H](CCC(=O)O)C(=O)N[C@@H](CCC(N)=O)C(=O)N[C@@H](C)C(=O)N[C@@H](CCC(=O)O)C(=O)N[C@@H](CCCCN)C(=O)N[C@@H](CC(N)=O)C(=O)N[C@@H](CCCCN)C(=O)N[C@@H](CCC(N)=O)C(=O)N[C@H](C(=O)N[C@@H](CC(C)C)C(=O)N[C@@H](CCC(=O)O)C(=O)N[C@@H](CCC(N)=O)C(=O)N[C@H](C(N)=O)C(C)C)[C@@H](C)CC)[C@@H](C)CC)[C@@H](C)CC)C(C)C)C(C)C
B2: SEQ ID NO 184 (peptide)
peptide: Ac-IVLSLD[dV]PIKLK([γGlu-C12 diacid])KILLEQEKQK[Aib]QREQAETN[Api]QILAQV-NH2
SMILES: CC[C@H](C)[C@H](NC(C)=O)C(=O)N[C@H](C(=O)N[C@@H](CC(C)C)C(=O)N[C@@H](CO)C(=O)N[C@@H](CC(C)C)C(=O)N[C@@H](CC(=O)O)C(=O)N[C@@H](C(=O)N1CCC[C@H]1C(=O)N[C@H](C(=O)N[C@@H](CCCCN)C(=O)N[C@@H](CC(C)C)C(=O)N[C@@H](CCCCNC(=O)CC[C@H](NC(=O)CCCCCCCCCCC(=O)O)C(=O)O)C(=O)N[C@@H](CCCCN)C(=O)N[C@H](C(=O)N[C@@H](CC(C)C)C(=O)N[C@@H](CC(C)C)C(=O)N[C@@H](CCC(=O)O)C(=O)N[C@@H](CCC(N)=O)C(=O)N[C@@H](CCC(=O)O)C(=O)N[C@@H](CCCCN)C(=O)N[C@@H](CCC(N)=O)C(=O)N[C@@H](CCCCN)C(=O)NC(C)(C)C(=O)N[C@@H](CCC(N)=O)C(=O)N[C@@H](CCCNC(=N)N)C(=O)N[C@@H](CCC(=O)O)C(=O)N[C@@H](CCC(N)=O)C(=O)N[C@@H](C)C(=O)N[C@@H](CCC(=O)O)C(=O)N[C@H](C(=O)N[C@@H](CC(N)=O)C(=O)NC1(C(=O)N[C@@H](CCC(N)=O)C(=O)N[C@H](C(=O)N[C@@H](CC(C)C)C(=O)N[C@@H](C)C(=O)N[C@@H](CCC(N)=O)C(=O)N[C@H](C(N)=O)C(C)C)[C@@H](C)CC)CCNCC1)[C@@H](C)O)[C@@H](C)CC)[C@@H](C)CC)C(C)C)C(C)C
B3: SEQ ID NO 185 (peptide)
peptide: Pentanoyl-VLSLD[dV]PIKLK([γGlu-C12 diacid])KILLEQEKQKKQREQAETN[Aib]QILAQV-NH2
SMILES: CCCCC(=O)N[C@H](C(=O)N[C@@H](CC(C)C)C(=O)N[C@@H](CO)C(=O)N[C@@H](CC(C)C)C(=O)N[C@@H](CC(=O)O)C(=O)N[C@@H](C(=O)N1CCC[C@H]1C(=O)N[C@H](C(=O)N[C@@H](CCCCN)C(=O)N[C@@H](CC(C)C)C(=O)N[C@@H](CCCCNC(=O)CC[C@H](NC(=O)CCCCCCCCCCC(=O)O)C(=O)O)C(=O)N[C@@H](CCCCN)C(=O)N[C@H](C(=O)N[C@@H](CC(C)C)C(=O)N[C@@H](CC(C)C)C(=O)N[C@@H](CCC(=O)O)C(=O)N[C@@H](CCC(N)=O)C(=O)N[C@@H](CCC(=O)O)C(=O)N[C@@H](CCCCN)C(=O)N[C@@H](CCC(N)=O)C(=O)N[C@@H](CCCCN)C(=O)N[C@@H](CCCCN)C(=O)N[C@@H](CCC(N)=O)C(=O)N[C@@H](CCCNC(=N)N)C(=O)N[C@@H](CCC(=O)O)C(=O)N[C@@H](CCC(N)=O)C(=O)N[C@@H](C)C(=O)N[C@@H](CCC(=O)O)C(=O)N[C@H](C(=O)N[C@@H](CC(N)=O)C(=O)NC(C)(C)C(=O)N[C@@H](CCC(N)=O)C(=O)N[C@H](C(=O)N[C@@H](CC(C)C)C(=O)N[C@@H](C)C(=O)N[C@@H](CCC(N)=O)C(=O)N[C@H](C(N)=O)C(C)C)[C@@H](C)CC)[C@@H](C)O)[C@@H](C)CC)[C@@H](C)CC)C(C)C)C(C)C
B4: SEQ ID NO 186 (peptide)
peptide: [NMeI]VLSLD[dV]PIKLK([γGlu-C12 diacid])KILLEQEKQKKQREQAETN[Aib]QILAQV-NH2
modifications: N-terminus assumed
SMILES: CC[C@H](C)[C@H](NC)C(=O)N[C@H](C(=O)N[C@@H](CC(C)C)C(=O)N[C@@H](CO)C(=O)N[C@@H](CC(C)C)C(=O)N[C@@H](CC(=O)O)C(=O)N[C@@H](C(=O)N1CCC[C@H]1C(=O)N[C@H](C(=O)N[C@@H](CCCCN)C(=O)N[C@@H](CC(C)C)C(=O)N[C@@H](CCCCNC(=O)CC[C@H](NC(=O)CCCCCCCCCCC(=O)O)C(=O)O)C(=O)N[C@@H](CCCCN)C(=O)N[C@H](C(=O)N[C@@H](CC(C)C)C(=O)N[C@@H](CC(C)C)C(=O)N[C@@H](CCC(=O)O)C(=O)N[C@@H](CCC(N)=O)C(=O)N[C@@H](CCC(=O)O)C(=O)N[C@@H](CCCCN)C(=O)N[C@@H](CCC(N)=O)C(=O)N[C@@H](CCCCN)C(=O)N[C@@H](CCCCN)C(=O)N[C@@H](CCC(N)=O)C(=O)N[C@@H](CCCNC(=N)N)C(=O)N[C@@H](CCC(=O)O)C(=O)N[C@@H](CCC(N)=O)C(=O)N[C@@H](C)C(=O)N[C@@H](CCC(=O)O)C(=O)N[C@H](C(=O)N[C@@H](CC(N)=O)C(=O)NC(C)(C)C(=O)N[C@@H](CCC(N)=O)C(=O)N[C@H](C(=O)N[C@@H](CC(C)C)C(=O)N[C@@H](C)C(=O)N[C@@H](CCC(N)=O)C(=O)N[C@H](C(N)=O)C(C)C)[C@@H](C)CC)[C@@H](C)O)[C@@H](C)CC)[C@@H](C)CC)C(C)C)C(C)C
B5: SEQ ID NO 187 (peptide)
peptide: Ac-IVLSLD[dV]PIKLK([γGlu-C18 diacid])KILLEQEKQKAQREQAETN[Api]QILAQV-NH2
SMILES: CC[C@H](C)[C@H](NC(C)=O)C(=O)N[C@H](C(=O)N[C@@H](CC(C)C)C(=O)N[C@@H](CO)C(=O)N[C@@H](CC(C)C)C(=O)N[C@@H](CC(=O)O)C(=O)N[C@@H](C(=O)N1CCC[C@H]1C(=O)N[C@H](C(=O)N[C@@H](CCCCN)C(=O)N[C@@H](CC(C)C)C(=O)N[C@@H](CCCCNC(=O)CC[C@H](NC(=O)CCCCCCCCCCCCCCCCC(=O)O)C(=O)O)C(=O)N[C@@H](CCCCN)C(=O)N[C@H](C(=O)N[C@@H](CC(C)C)C(=O)N[C@@H](CC(C)C)C(=O)N[C@@H](CCC(=O)O)C(=O)N[C@@H](CCC(N)=O)C(=O)N[C@@H](CCC(=O)O)C(=O)N[C@@H](CCCCN)C(=O)N[C@@H](CCC(N)=O)C(=O)N[C@@H](CCCCN)C(=O)N[C@@H](C)C(=O)N[C@@H](CCC(N)=O)C(=O)N[C@@H](CCCNC(=N)N)C(=O)N[C@@H](CCC(=O)O)C(=O)N[C@@H](CCC(N)=O)C(=O)N[C@@H](C)C(=O)N[C@@H](CCC(=O)O)C(=O)N[C@H](C(=O)N[C@@H](CC(N)=O)C(=O)NC1(C(=O)N[C@@H](CCC(N)=O)C(=O)N[C@H](C(=O)N[C@@H](CC(C)C)C(=O)N[C@@H](C)C(=O)N[C@@H](CCC(N)=O)C(=O)N[C@H](C(N)=O)C(C)C)[C@@H](C)CC)CCNCC1)[C@@H](C)O)[C@@H](C)CC)[C@@H](C)CC)C(C)C)C(C)C
B6: SEQ ID NO 188 (peptide)
peptide: Ac-IVLSLD[dV]PIKLK([γGlu-C18 diacid])KILLEQEKQK[Aib]QREQAETN[Api]QILAQV-NH2
SMILES: CC[C@H](C)[C@H](NC(C)=O)C(=O)N[C@H](C(=O)N[C@@H](CC(C)C)C(=O)N[C@@H](CO)C(=O)N[C@@H](CC(C)C)C(=O)N[C@@H](CC(=O)O)C(=O)N[C@@H](C(=O)N1CCC[C@H]1C(=O)N[C@H](C(=O)N[C@@H](CCCCN)C(=O)N[C@@H](CC(C)C)C(=O)N[C@@H](CCCCNC(=O)CC[C@H](NC(=O)CCCCCCCCCCCCCCCCC(=O)O)C(=O)O)C(=O)N[C@@H](CCCCN)C(=O)N[C@H](C(=O)N[C@@H](CC(C)C)C(=O)N[C@@H](CC(C)C)C(=O)N[C@@H](CCC(=O)O)C(=O)N[C@@H](CCC(N)=O)C(=O)N[C@@H](CCC(=O)O)C(=O)N[C@@H](CCCCN)C(=O)N[C@@H](CCC(N)=O)C(=O)N[C@@H](CCCCN)C(=O)NC(C)(C)C(=O)N[C@@H](CCC(N)=O)C(=O)N[C@@H](CCCNC(=N)N)C(=O)N[C@@H](CCC(=O)O)C(=O)N[C@@H](CCC(N)=O)C(=O)N[C@@H](C)C(=O)N[C@@H](CCC(=O)O)C(=O)N[C@H](C(=O)N[C@@H](CC(N)=O)C(=O)NC1(C(=O)N[C@@H](CCC(N)=O)C(=O)N[C@H](C(=O)N[C@@H](CC(C)C)C(=O)N[C@@H](C)C(=O)N[C@@H](CCC(N)=O)C(=O)N[C@H](C(N)=O)C(C)C)[C@@H](C)CC)CCNCC1)[C@@H](C)O)[C@@H](C)CC)[C@@H](C)CC)C(C)C)C(C)C

These binders were tested against human corticotropin-releasing factor 2a (CRF2a receptor) (human), Q13324 (assay: cell-based or functional assay).
Chain of human corticotropin-releasing factor 2a (CRF2a receptor) (human), Q13324 (Q13324 20-411): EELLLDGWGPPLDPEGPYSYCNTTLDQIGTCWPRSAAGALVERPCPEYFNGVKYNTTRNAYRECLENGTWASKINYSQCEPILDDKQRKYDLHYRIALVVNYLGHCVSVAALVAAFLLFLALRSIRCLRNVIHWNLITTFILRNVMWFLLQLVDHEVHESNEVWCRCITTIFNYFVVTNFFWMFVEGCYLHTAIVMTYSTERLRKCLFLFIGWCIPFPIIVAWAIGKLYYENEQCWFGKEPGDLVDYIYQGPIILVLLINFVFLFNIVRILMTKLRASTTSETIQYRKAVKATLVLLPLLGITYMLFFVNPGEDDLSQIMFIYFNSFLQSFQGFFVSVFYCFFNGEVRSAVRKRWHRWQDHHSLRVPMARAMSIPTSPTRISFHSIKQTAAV

EC50 [nM] (cAMP)	Binder
0.09 nM	B1
4.25 nM	B2
3.54 nM	B3
0.79 nM	B4
0.26 nM	B5
0.28 nM	B6

The binders below were run against T1, CRF1R receptor (assay: cell-based or functional assay).

EC50	Emax (% I)	Binder
166 nM	56%	B1
	3%	B2
	2%	B3
	2%	B4
195 nM	37%	B5
	32%	B6
